Assay results published in patent US20110165161A1, “ANTI-EPCAM ANTIBODIES THAT INDUCE APOPTOSIS OF CANCER CELLS AND METHODS USING SAME” (priority 2009, published 2011).
Marks after values point to notes of the source that are not given here.

Experiments:
[1] = system: CHO parental cells; test: FACS binding of anti-EpCAM antibodies to CHO parental cells; parameters: species or system Chinese hamster; conditions: antibody 0.1 μg/ml; HPS at 300x dilution
Method: 1×10^5 CHO/EpCAM or CHO parental cells were seeded in each well of a v-bottomed 96-well plate and incubated with purified anti-EpCAM antibodies or mouse IgG control antibody 9E10 at concentration of 0.1 μg/ml. A 300× dilution of human cell hyper-immune serum (HPS 300×) was used as binding positive control for both cell lines here. After 1 hr incubation at 4° C., cells were washed twice with 200 μl FACS buffer (1×PBS containing 1% FBS), stained with 100 μl of 1 μg/ml goat-anti-mouse IgG-PE (Southern Biotech, Cat. No. 1032-09) in FACS buffer and then incubated at 4° C. for 30 min. Cells were washed thrice with FACS buffer and analyzed by flow cytometry (BD LSR, BD Life Sciences).

[2] = system: Breast cancer T-47D cells; test: Antibody cytotoxicity assay (Annexin V + PI), T-47D; type: cell-based; conditions: 1, 3 and 10 μg/ml, overnight
Method: (§1) After a 17-20 hr incubation at 37° C., cells were stained with 0.3 μl of FITC-conjugated Annexin V (Strong Biotech Corp. Cat. No. AVK250) in 50 μl Annexin V binding buffer (Strong Biotech Corp. Cat. No. AVK250) at RT for 20 min. After wash, the cells were then stained with 0.3 μl of propidium iodide in 200 μl Annexin V binding buffer. Annexin V and Propidium Iodide were used as a joint indicator for cell death. The data were acquired with BD FACSCalibur based on an acquisition of 3,000-5,000 cells and analyzed with the Cell Quest software. The combined percentages of the Annexin V+/PI+, Annexin V+/PI− and Annexin V−/PI+populations were considered as dead cells.

[3] = system: Colorectal cancer DLD-1 cells; test: Antibody cytotoxicity assay (Annexin V + PI), DLD-1; type: cell-based; conditions: 1, 3 and 10 μg/ml, overnight
Method: as §1

[4] = system: Gastric cancer NCI-N87 cells; test: Antibody cytotoxicity assay (Annexin V + PI), NCI-N87; type: cell-based; conditions: 1, 3 and 10 μg/ml, overnight
Method: as §1

[5] = system: Lung cancer NCI-H520 cells; test: Antibody cytotoxicity assay (Annexin V + PI), NCI-H520; type: cell-based; conditions: 1, 3 and 10 μg/ml, overnight
Method: as §1

[6] = system: Prostate cancer LNCaP cells; test: Antibody cytotoxicity assay (Annexin V + PI), LNCaP; type: cell-based; conditions: 1, 3 and 10 μg/ml, overnight
Method: as §1

[7] = system: Pharynx cancer FaDu cells; test: Antibody cytotoxicity assay (Annexin V + PI), FaDu; type: cell-based; conditions: 1, 3 and 10 μg/ml, overnight
Method: as §1

[8] = system: Ovarian cancer NIH:OVCAR-3 cells; test: Antibody cytotoxicity assay (Annexin V + PI), NIH:OVCAR-3; type: cell-based; conditions: 1, 3 and 10 μg/ml, overnight
Method: as §1

[9] = system: NCI-H358 lung cancer cells; test: Cell death in NCI-H358 lung cancer cells (Annexin V + PI); type: cell-based, human; conditions: mean of 5 experiments; mAb 10 μg/ml; 17 hr
Method: (§2) 5×10^4 NCI-H358 cells were seeded to each well of a 96-well plate, and then 10 μg/ml of anti-EpCAM or control (9E10) mAbs diluted in the medium was added into the cells. After a 17-hr incubation at 37° C., the cells were stained with 0.3 μl of FITC-conjugated Annexin V (Strong Biotech Corp. Cat. No. AVK250) in 50 μl Annexin V binding buffer (Strong Biotech Corp. Cat. No. AVK250) at RT for 20 min. After wash, the cells were then stained with 0.3 μl of propidium iodide in 200 μl Annexin V binding buffer. Annexin V and Propidium Iodide were used as a joint indicator for measuring cell death. The data were acquired with BD FACSCalibur based on an acquisition of 3,000-5,000 cells and analyzed with the Cell Quest software. The combined percentages of the Annexin V+/PI+, Annexin V+/PI− and Annexin V−/PI+populations were considered as dead cells.

[10] = system: COLO 205 colon cancer cells; test: Cytotoxicity of anti-EpCAM antibodies in combination with oxaliplatin in COLO 205; type: cell-based, human; conditions: 24 hr
Method: as §2, with “Oxaliplatin, combined with infusional administration of 2 other chemotherapy drugs, 5-fluorouracil/leucovorin (5-FU/LV), is now considered as one of the as first-line treatments for people with advanced carcinoma of the colon or rectum (André et al. (2004) N Engl J Med 350(23):2343-2351). To test the cytotoxicity of anti-EpCAM antibodies in the presence of oxaliplatin, 1×10^5 COLO 205 cells” for “5×10^4 NCI-H358 cells”, “then 0.03, 0.3 and 3” for “then 10”, “mAbs in combination with oxaliplatin at concentration of 0, 0.01, 0.1, and 1 μg/ml” for “mAbs”, “medium were” for “medium was”, “a 24-hr” for “a 17-hr”

[11] = system: DLD-1 xenograft; test: Colorectal cancer DLD-1 xenograft in SCID mice; type: in vivo; conditions: for tumor volume Mean ± SD: 12.5 mg/kg i.p.
Method: (§3) Whether the in vitro apoptosis-inducing activity of anti-EpCAM antibodies has any in vivo biological relevance was studied in the xenograft model. […] 5×10^6 DLD-1 or 3×10^6 NCI-H358 cells were implanted subcutaneously into the hind flank region of SCID mice (6-7 weeks) on day 0. Treatment by intraperitoneal injection with antibodies at 12.5 mg/kg for DLD-1 or 30 mg/kg for NCI-H358 in 0.1 ml PBS started on day 1 after tumor-cell inoculation and was repeated at days 4, 8, 11, 15, 18, 22 and 25. As control, 9E10 (an mouse anti-myc antibody) at the same dose were used. Five or six mice were used in each group of the experiment. Tumor growth was assessed based on twice-weekly measurement of tumor volume (mm^3) by calipers and the tumor size was calculated using the formula: π/6×larger diameter×(smaller diameter)^2 (Kievit E, Cancer Research, 60:6649-55). Statistical analysis of tumor growth was performed using the Student's t-test.

[12] = system: NCI-H358 xenograft; test: Lung cancer NCI-H358 xenograft in SCID mice; type: in vivo; conditions: for tumor volume Mean ± SD: 30 mg/kg i.p.
Method: as §3

B1: 12H8: murine anti-human EpCAM monoclonal antibody (IgG2a, K), hybridoma m342-12H8.3; VH SEQ ID NO:3, VL SEQ ID NO:5 (antibody, listed as Mus musculus, V domains shown)
VH: QIQLVQSGPELKKPGETVKISCKTSGYTFTDYSMHWVNQAPGKGLKWMGWINTETGEPTYTDDFKGRFAFSLETSASTAYLQINNLKNEDTATYFCARTAVYWGQGTTLTVSS
VL: DIQMTQSPSSLSASLGERVSLTCRASQEISGSLSWLQQKPDGTIKRLIYAASTLNSGVPKRFSGRRSGSDYSLTISSLESEDFVDYYCLQYSSYPWSFGGGTKLEIKR
- Binding (FACS, Mean fluorescence intensity (MFI)) CHO [1]: 5
- Induction of cell death (in words) [2]: substantial cell death
- Induction of cell death (in words) [3]: substantial cell death
- Induction of cell death (in words) [4]: substantial cell death
- Induction of cell death (in words) [5]: substantial cell death
- Induction of cell death (in words) [6]: substantial cell death
- Induction of cell death (in words) [7]: substantial cell death
- Induction of cell death (in words) [8]: substantial cell death
- % of Annexin V + PI staining (untreated background subtracted), Mean ± SEM [9]: 33.6 ± 2.1%
- % of Annexin V + PI staining (untreated background subtracted) ([10]; mAb 0.03 μg/ml + oxaliplatin 0.01 μg/ml): 10%
- % of Annexin V + PI staining (untreated background subtracted) ([10]; mAb 0.03 μg/ml + oxaliplatin 0.1 μg/ml): 9%
- % of Annexin V + PI staining (untreated background subtracted) ([10]; mAb 0.03 μg/ml + oxaliplatin 1 μg/ml): 14%
- % of Annexin V + PI staining (untreated background subtracted) ([10]; mAb 0.03 μg/ml, oxaliplatin 0 μg/ml): 9%
- % of Annexin V + PI staining (untreated background subtracted) ([10]; mAb 0.3 μg/ml + oxaliplatin 1 μg/ml): 35%
- % of Annexin V + PI staining (untreated background subtracted) ([10]; mAb 0.3 μg/ml, oxaliplatin 0 μg/ml): 20%
- % of Annexin V + PI staining (untreated background subtracted) ([10]; mAb 3 μg/ml + oxaliplatin 0.01 μg/ml): 22%
- % of Annexin V + PI staining (untreated background subtracted) ([10]; mAb 3 μg/ml + oxaliplatin 0.1 μg/ml): 26%
- % of Annexin V + PI staining (untreated background subtracted) ([10]; mAb 3 μg/ml + oxaliplatin 1 μg/ml): 38%
- % of Annexin V + PI staining (untreated background subtracted) ([10]; mAb 3 μg/ml, oxaliplatin 0 μg/ml): 17%
- Inhibition of tumor growth (in words) ([11]; colorectal (DLD-1) xenograft): efficiently inhibited
- tumor volume Mean ± SD ([11]; d29): 296 ± 154* mm^3
- tumor volume Mean ± SD ([11]; d32): 396 ± 156* mm^3
- tumor volume Mean ± SD ([11]; d36): 521 ± 189* mm^3
- tumor volume Mean ± SD ([11]; d39): 619 ± 232* mm^3
- tumor volume Mean ± SD ([11]; d43): 727 ± 270* mm^3
- tumor volume Mean ± SD ([11]; d46): 839 ± 292* mm^3
- tumor volume Mean ± SD ([11]; d49): 898 ± 207* mm^3
- tumor volume Mean ± SD ([12]; d46): 325 ± 132* mm^3
- tumor volume Mean ± SD ([12]; d50): 475 ± 224* mm^3
- tumor volume Mean ± SD ([12]; d53): 597 ± 304* mm^3
- tumor volume Mean ± SD ([12]; d57): 656 ± 274* mm^3
- tumor volume Mean ± SD ([12]; d60): 680 ± 279* mm^3
- tumor volume Mean ± SD ([12]; d64): 859 ± 326* mm^3
- tumor volume Mean ± SD ([12]; d67): 1076 ± 464* mm^3
- Inhibition of tumor growth (in words) ([12]; lung (NCI-H358) xenograft): efficiently inhibited
